Assay results taken from publication PMC4552884.

Target: PfHsp90 (Plasmodium falciparum (endogenous in strain 3D7)) (UniProt Q8IC05)

decrease in signal of the precursor PfHsp60 spot in the PfHsp60 immunoprecipitate of 35S-labelled parasites treated with 5 uM Geldanamycin against DMSO (2DGE, phosphorimaging): 80%
Substance: precursor PfHsp60 (natural protein)
